Measurements reported in the DeepSol protein solubility set.

Test: soluble on expression in E. coli; label from the status in PepcDB or PDB records

Row | Sequence | soluble on expression in E. coli
1 | MAEEQARHVKNGLECIRALKAEPIGSLAIEEAMAAWSEISDNPGQERATCREEKAGSSGLSKPCLSAIGSTEGGAPRIRGQGPGESDDDAETLGIPPRNLQASSTGLQCYYVYDHSGEAVKGIQDADSIMVQSGLDGDSTLSGGDNESENSDVDIGEPDTEGYAITDRGSAPISMGFRASDVETAEGGEIHELLRLQSRGNNFPKLGKTLNVPPPPDPGRASTSGTPIKKGHRREISLIWNGDRVFIDRWCNPMCSKVTLGTIRARCTCGECPRVCEQCRTDTGVDTRIWYHNLPEIPE | not soluble
2 | MAEGDLSFFVMLARRESFSATAQDLGLSASAVSRRLARLEDRLGVRLLNRTTRKVSLTSEGEAYYGAALRLLDEIADLEHNLSQGRDRPAGLLRINATLGFGRTHLAPAIARFRRIHPAVEVQLLLTDAPLNLVEEGIDLGIRFGAPPFGRMVMRLLQRNRRFLCAAPSYLEARGVPQSLTDLQQHSCIVLRQDHDAYDVWRFDDIGEASPSAKVSGELSTNDGEIALAWVLDGQGIMLRSEWDIAQHVREGRLRLLLPHYRQTANIHAIYPERHNLSAKVRVFADHLAAHVRDADARMPLQLAAAELRAATARA | not soluble
3 | MAEGGGGVGVVYVLENEAYLSKEGGTLKVSRRAGREVLLQKPLIAVEEIVILGNAVVTPALLKHCAQEGVGIHYLSPTGTYYAGLTRTPSKNAPARVAQFKAYLEPTWKLALAQRFVLGKIRNGLVFLRRNGAEGWERLKEALLEAERAQDEEALRGAEGRAADLYFRAFAELLPEEFAFGERSRRPPRDPANSLLSLAYTLLAKECESALLVAGLDPYVGYLHEVRYGRPSLALDLMEEFRSVLADSVVLSLLNNRRVTLEDFDDSEGFPRLRKEAWPKFLRAWEGRLNERIQHPLLGKRLAYREILLAQARILVKHLLGELPRYEPFAVR | soluble
4 | MAEHEQVNWPYVNTKLKRDPAVEAQIEKLLAKMTIEQKVAQMIQPEIGYLTVEQMRKYGFGSYLNGGNTAPYGNKRADQATWLKYADEMYLAAMDSTLDGIAIPTVWGTDAMHGHSNVYGATLFPHNIGLGAARDTDLIKRIGQATAKEVAATGIEWSFAPTVAVVRDDRWGRTYESYSEDPDLVKRYAGEMVTGIQGDVGADFLKGSNRIATAKHFVGDGGTERGVDRGNTLIDEKGLRDIHSAGYFSAINQGVQSVMASFNSWNGKRVHGDKHLLTDVLKNQLGFDGFVVSDWNAHKFVEGCDLEQCAQAINAGVDVIMVPEHFEAFYHNTVKQVKAGVIAESRINDAVRRFLRAKIRWGVFTKSKPSARPESQHPQWLGAAEHRTLAREAVRKSLVLLKNNESILPIKASSRILVAGKGANAINMQAGGWSVSWQGTDNTNSDFPNATSIFSGLQSQVTKAGGKITLSESGEYTSKPDVAIVVIGEEPYAEWFGDIELLEFQHETKHALALLKQLKADNIPVVTVFLSGRPLWVNKELNASDAFVAAWLPGSEGEGVADVLLTNKQGKTQFDFTGKLSFSWPKYDDQFTLNLNDADYDPLFAYGYGLTYQDNINVPVLSEKTSPKKTVNSDSHPLFVRSLAKNMTWQLADTSTQKVLASGASATSGDKQSLLMQSVNLSYQEDGRGFNWRAQAALSLSYLEPTPLDSKFSTGYLELKMRIDKAPEQGANLQVMCSESNCLRDIDFSSFSQLMADKSWHTLAIPLHCDDSDQAEQPITDALRITSQNLSLAIADVALTIKPSDDSISLTCAKLEHHHHHH | soluble
5 | MAEIDYKKVTGMIHSTESFGSVDGPGIRFIIFMQGCKMRCQYCHNPDTWEMETNNSKERTVEDVLKEALRYKHFWGKDGGITVSGGEAMLQIDFITALFIEAKKLGIHTTLDTCGFAYRATPEYHAILEKLLDVTDLVLLDLKEIDSEQHKIVTRQSNKNILQFARYLSDRGTPVWIRHVLVPGLTDIDDHLKRLGEFVQTLDNVDKFEVLPYHTMGEFKWRELGIPYPLAGVKPPTPERVKNAKDIMKTESYTEYLKRIQN | soluble
6 | MAEIHYLISDASKKVDVEAHVLRYWEEELELPIPRNDMGHRYYTDFHIRLFKQVKVLKEKGYQLKAIKTALAKSLQDGKVIIPSEVLEEDVIAALKETGIGEQDMKEQKGNENKNGEKRADEKVKDGQACEGGGEAGLTALDKDSVEALLAGEKMEQFQKVMNHIIGRAMEENSEKLSQDISYLVHDKLMKEMEYLMRVSDEREEERFKQLDEVIRAYQRDNQGRAEAAASVTGFPFFRFKKKKFGRNGNKL | not soluble
7 | MAEKNHQQQERLPGNPFFPSRSNAGSSFDMPETPHLIDSLTSQIDEFTIQSIIDTQRQSLKRFEKTNEMLMNCAQLGDRRIEKAKRDSVGHKETILQMKTDLEFIFKKIRMFKTVLSSKYPEVYAEVSAELTPKRSEEDE | not soluble
8 | MAEMGSKGVTAGKIASNVQKKLTRAQEKVLQKLGKADETKDEQFEQCVQNFNKQLTEGTRLQKDLRTYLASVKAMHEASKKLNECLQEVYEPDWPGRDEANKIAENNDLLWMDYHQKLVDQALLTMDTYLGQFPDIKSRIAKRGRKLVDYDSARHHYESLQTAKKKDEAKIAKAEEELIKAQKVFEEMNVDLQEELPSLWNSRVGFYVNTFQSIAGLEENFHKEMSKLNQNLNDVLVGLEKQHGSNTFTVKAQPSDNAPAKGNKSPSPPDGSPAATPEIRVNHEPEPAGGATPGATLPKSPSQSSLPAVVVETFPATVNGTVEGGSGAGRLDLPPGFMFKVQAQHDYTATDTDELQLKAGDVVLVIPFQNPEEQDEGWLMGVKESDWNQHKELEKCRGVFPENFTERVP | soluble
9 | MAEMTEMQVHEERVMNLVESSSGTPTITPLTKTNAHRAESIRRIGTDKDAVAFHFRKKSTGMYMYIHTYTENGEEKELRASDFKNWEVTEFKYPGYLEELEEIAVNAYRWNSHDPETRAETDIMGYEKQLHEDLKKIPEAKKRITSILTKVKYPFYSTASHAAQTRW | not soluble
10 | MAFEFKLPDIGEGIHEGEIVKWFVKPGDEVNEDDVLCEVQNDKAVVEIPSPVKGKVLEILVPEGTVATVGQTLITLDAPGYENMTFKGQEQEEAKKEEKTETVSKEEKVDAVAPNAPAAEAEAGPNRRVIAMPSVRKYAREKGVDIRLVQGTGKNGRVLKEDIDAFLAGGAKPAPAAAEEKAAPAAAKPATTEGEFPETREKMSGIRRAIAKAMVHSKHTAPHVTLMDEADVTKLVAHRKKFKAIAAEKGIKLTFLPYVVKALVSALREYPVLNTSIDDETEEIIQKHYYNIGIAADTDRGLLVPVIKHADRKPIFALAQEINELAEKARDGKLTPGEMKGASCTITNIGSAGGQWFTPVINHPEVAILGIGRIAEKPIVRDGEIVAAPMLALSLSFDHRMIDGATAQKALNHIKRLLSDPELLLMEA | soluble
11 | MAFLRSMWGVLSALGRSGAELCTGCGSRLRSPFSFVYLPRWFSSVLASCPKKPVSSYLRFSKEQLPIFKAQNPDAKTTELIRRIAQRWRELPDSKKKIYQDAYRAEWQVYKEEISRFKEQLTPSQIMSLEKEIMDKHLKRKAMTKKKELTLLGKPKRPRSAYNVYVAERFQEAKGDSPQEKLKTVKENWKNLSDSEKELYIQHAKEDETRYHNEMKSWEEQMIEVGRKDLLRRTIKKQRKYGAEEC | soluble
12 | MAFPFDILHLEIIRSTLESEKDRCEAKEKFGTIIDNLNGPADIEKYESLVQKAFLHANAETKLESIGFRVGRQLVEKVSKESPKLVTELEIVKFICKDFWSSVFGKQVDNLRTNHQGVYVVQDGRFTTLRSFPEGDQYVKESGYFLAFPCGLLRGALAGLNIRAIVTPTIESVPSVKFHIQVQPK | not soluble
13 | MAFRSKFAVLDESWTYVRVRRGPRRQNLWIWNALIDGVPFFVTGDRDYNTFRLLWLSLPKCEVHYTDDYPIYQVLYHHVVGKKYTHTVESYNSFCRSHLVRLARDTKAVNRSRAMIDYSLDLLNVMYPQLEHHHHHH | not soluble
14 | MAFVLNGQDLDALATGGCFFGSGGGGTLSSAKGLLRHFNKGAYYPADQVTVVTVDEAVSAAEGDAVMVAYMGSPQAINGSSYPEGPVGAAENIQGKLATQGRKLAYIVPPESGALGFVVACLVAVRLGLKVIDADGAGRAVPSLPMLTYAAAAISPRPAVLVSQEGLQVELDVTPRDGENGSVTHQQDVAAIIENMMRPIVAAAQFKEFGGLAMWVMAPEQFSAALPIHGTLSRAVKTGHALAAGELDTAARMQDFLKRESGLLARPIFTGQFKAVEVSTGAGFDVGKMHIVSAEATCTVVYQNESMLAWDSRAAAPLVTAPDSLAYFVSGPGQSVYSNGDAVLADGTLSPSLKDRTVTLFAWQADAALRTPDGQILASFMGLLADMGYLGPYISVEAMQLATAGESRPLEHHHHHH | not soluble
15 | MAGASETYTHTLTDVPIDIKYDSDDYFISGYSYGADVYMSSVNRVKLDSEINEDTRKFKVVADLTNMKPGTHKVPLKVVNLPSGVNATVSPTTITVTMGKKKTLEHHHHHH | soluble
16 | MAGDPMKIYFEAYGCTLNQGETALYVNKLLNEGNTLVSNPKEADLSIIGTCAVIKKTEDHMMARIQNLSRFGKVEVIGCLAPVKGKTMVEDNVSVIEKDRFRSFQEVIDEVSPVNAEIVSGIPINQGCTGKCNFCVSHIARGKLVSRKPEKIAGQIKILLQRGIKEIKITSLDTAAYGKDIGLRLPHLIRTITEIGDDFRLRVGMMEPKNTLEIVDDLISAYRSEKVFKFLHLPVQSGDDYVLEVMNREYTVSDFIRITGKFREAFPDSTLSTDLIIGYYAENDDSFEKTVQLIEKIRPEIINVTKFSPRELTADFEKRPKPTNILKEQDRMIADMHKEILQEKFSNLIGKTEFVLITENGKGRSMIGRDHAYRPIVIMDKTRKFEFHQVEITGFENTSLIGRIIDLEHHHHHH | not soluble
17 | MAGDPMLNSFKLSLQYILPKLWLTRLAGWGASKRAGWLTKLVIDLFVKYYKVDMTEAQKPDTASYRTFNDFFVRPLRDDVRPLNTDPNILVMPADGVISQLGRIEEDKILQAKGHNYSLEALLAGNYLMADKFRNGTFVTTYLSPRDYHRVHMPCNGILREMIYVPGDLFSVNHLTAQNVPNLFARNERVICLFDTEFGPMAQILVGATIVGSIETVWAGTITPPREGIIKRWTWPEGEHEGSVALLKGQEMGRFKLGSTVINLFAPGKVNLIASLASLSVTKIGQPLATSTETFVAPEVEPAPLPAEEIKAEHDASPLVDNKKDDTLEHHHHHH | soluble
18 | MAGFPGKEAGPPGGWRKCQEDESPENERHENFYAEIDDFAPSVLTPTGSDSGAGEEDDDGLYQVPTHWPPLMAPTGLSGERVPCRTQAAVTSNTGNSPGSRHTSCPFTLPRGAQPPAPAHQKPTAPTPKPRSRECGPSKTPDPFSWFRKTSCTEGGADSTSRSFMYQKGFEEGLAGLGLDDKSDCESEDESNFRRPSSHSALKQKNGGKGKPSGLFEHLAAHGREFSKLSKHAAQLKRLSGSVMNVLNLDDAQDTRQAKAQRKESMRVPIVTHLTNHVPVIKPACSLFLEGAPGVGKTTMLNHLKAVFGDLTIVVPEPMRYWTHVYENAIKAMHKNVTRARHGREDTSAEVLACQMKFTTPFRVLASRKRSLLVTESGARSVAPLDCWILHDRHLLSASVVFPLMLLRSQLLSYSDFIQVLATFTADPGDTIVWMKLNVEENMRRLKKRGRKHESGLDAGYLKSVNDAYHAVYCAWLLTQYFAPEDIVKVCAGLTTITTVCHQSHTPIIRSGVAEKLYKNSIFSVLKEVIQPFRADAVLLEVCLAFTRTLAYLQFVLVDLSEFQDDLPGCWTEIYMQALKNPAIRSQFFDWAGLSKVISDFERGNRD | not soluble
